Results as given in patent publication US20220204644A1 (MAB DISCOVERY, published 2022).

Key:
[1] = biological target: T1, HER2 full-length extracellular domain (ECD), recombinant (human, UniProt P04626 23-652); assay: ELISA, coated HER2 ECD, antibody at 10 µg/ml
T1 construct: extracellular domain; also called full length ECD; HER2 full-length ECD
Protocol: (§1) Recombinant Her2 domains (full length ECD purchased from Biozol, ECD domains produced at Mab Discovery), were coated on a 384-well Nunc™ MaxiSorp™ plate at optimized concentrations ([…]) in PBS for one hour at room temperature. After washing three times with wash buffer (PBS, 0.1% Tween), plates were blocked with PBS, 2% BSA, 0.05% Tween for one hour at room temperature. Plates were washed again three time with wash buffer and antibodies at a concentration of 10 μg/ml in PBS, 0.5% BSA, 0.05% Tween were incubated for one hour at room temperature. After 3 washes in wash buffer, wells were incubated with 12.5 μl of a 1:5000 dilution of anti-human peroxidase-linked, species specific F(ab)2 Fragment from goat (AbD Serotec) in ELISA buffer for one hour at room temperature. Wells were washed six times with wash buffer and 15 μl/well TMB substrate solution (Invitrogen) were added. After 10 minutes at room temperature 15 μl Stop solution (1M HCl) were added per well and absorbance at 450 and 620 nm wavelength was measured using a Tecan M1000 microplate reader.

[2] = biological target: T2, HER2 sub-domain I, recombinant (human, UniProt P04626 23-217, limits assumed); assay: ELISA, coated HER2 domain
T2 construct: domain: sub-domain I; also called HER2 domain I
Protocol: as §1

B1: B100 anti-HER2 monoclonal antibody (antibody, V domains shown)
VH: QSVEESGGRLVTPGTPLTLTCTVSGFSLSNYGVSWVRQAPGKGLEYIGIISGSGFTYYASWAKGRFTISKTSTTVDLKITSPTTKDTATYFCARGVVPGYNAGGLWGQGTLVTVSS
VL: DIVMTQTPASVSEPVGGTVTIKCQASQGISTALAWYQQKPGQRPKLLIYSASTLASGVSSRFKGSGSGTQFTLTISDLECADAATYYCQCTAAGSVSVGAFGGGTEVVVN
notes: It was detected in the ELISA with an anti-human F(ab)2 conjugate; also called B100 antibody
[1]
  binding result: binds
[2]
  binding result: no binding (tested: 10 µg/ml)
